Patent US20240156935A1 (VIB VZW, published 2024)

T1: recombinant Q586B2 protein (Tb927.6.4140), produced in E. coli WK6
T1 chain: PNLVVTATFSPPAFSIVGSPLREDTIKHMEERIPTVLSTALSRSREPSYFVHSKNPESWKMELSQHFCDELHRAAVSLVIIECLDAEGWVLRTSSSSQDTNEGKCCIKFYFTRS

T2: native Q586B2 (Tb927.6.4140) of Trypanosoma brucei brucei parasites (Trypanosoma brucei brucei)
T2 construct: Native protein; also called native protein
T2 chain: T1 chain

B1: Nb34 (VHH)
VHH: QVQLQESGGGLVQPGGSLRLSCAASGFTFSNSPMNWVRQAPGKGLEWVSAINSGGGSTYYADSVKGRFTISRDNAKNTLYLQMNSLKPEDTAVYYCAKGGRTYYSGSYYSWGMDYWGKGTQVTVSS
B2: Nb39 (VHH)
VHH: QVQLQESGGGLVQPGGSLRLSCTASGSIFSGYAMGWYRQAPGKQRELVAGITSGGSTIYAGSVKGRFTISRDNAKNTVYLQMNSLKPEDTAVYYCKNGTYYSARDYWGQGTQVTVSS
B3: Nb58 (VHH)
VHH: QVQLQESGGGLVQPGGSLRLSCAASGRSISSIYAMGWYRQAPGKQRELVARLTSGGSSNYADSVKGRFTITRDNAQNTVYLQMNSLKPEDTAVYYCNAEPSRWWLDDDYWGQGTQVTVSS
notes: Llama nanobody purified by IMAC and SEC; It was HA-tagged in flow cytometry; also called anti-Q586B2 Nb
B4: Nb36 (VHH)
VHH: QVQLQESGGGLVQPGGSLRLSCAASGFAFSFYWMNWVRQAPGKGLEWVSAINSGGGSTYYADSVKGRFTISRDNAKNTLYLQMNSLKPEDTAVYYCAKGIVQRGEYYGMDYWGKGTQVTVSS
B5: Nb27 (VHH)
VHH: QVQLQESGGGLVQPGGSLRLSCTTSRSILSIYAMGWYRQAPGKQRELVAVITSGGSTYYADSVKGRFTISRDNAKNTLYLQMNSLKPEDTALYYCARGGYGTSPQPSWGQGTQVTVSS
B6: Nb53 (VHH)
VHH: QVQLQESGGGSVQAGGSLRLSCSASGYTYSSHCTAWFRQAPGKEREALAAINSRSGTTYYADSVKGRFTISQDNTKNTAYLQMNSLKPEDTATYFCAALSFGCTGPLASLGQGTQVTVSS
B7: Nb32 (VHH)
VHH: QVQLQESGGGLVQPGGSLRLSCAASGFTFSAYAMSWVRQAPGKGLEWVSTIDSGGGSTYYADSVKGRFTISRDNAKKTLYLHMNSLKPEDTAVYYCAKRGYSDYARHVWGQGTQVTVSS
notes: as for B3
B8: Nb41 (VHH)
VHH: QVQLQESGGGLVQAGGSLRLSCAASGRTFSSYAMGWFRQAPGKEREFIALISWIGGSTAYADSVKGRFTISRDNAKNTLYLQMNSLKPEDTAVYYCATDRIGRHRGPGTQVTVSS
notes: as for B3

Target: T1, recombinant Q586B2 protein …
Experiment: ELISA
With B1 the Kd was 36.7 nM.
Binder B2 has a Kd of 49.9 nM.
B3 showed a Kd of 36.7 nM.
Work on B4 yielded a Kd of 11.3 nM.
B5 gave a Kd of 52 nM.
In the case of B6, the Kd is reported as 45.5 nM.
With B7 the Kd was 46.6 nM.
Binder B8 has a Kd of 14.5 nM.

Target: T2, native Q586B2 (Tb927.6.4140) of …
Experiment: flow cytometry on purified T. brucei brucei parasites, HA-tagged Nb, Alexa-488 anti-HA IgG
Protocol: FIG. 4A) Representative flow cytometric profile of purified, fixed and permeabilized T. brucei brucei parasites plotted in an SSC-A versus FSC-A plot and subsequently gating on single cells (FSC-H versus FSC-A plot). 10⁶ parasites in presence or absence of 5 μg of HA-tagged Nb was used per condition.
B3: binds.
B7: binds.
B8: binds.
